Source: paper PMC4597128

Molecular target: Helicobacter pylori HP0231 (DsbK) (Helicobacter pylori)
Test: SEC; purified His6-tagged proteins on a calibrated ENrich SEC70 column (Bio-Rad), absorbance at 280 nm; calibrated with Gel Filtration Standard (Bio-Rad)

- stoichiometry N: 2
Substance: Helicobacter pylori HP0231 (DsbK) (enzyme)
